Measured values taken from patent US20240261333A1 (published 2024).

Key:
Test in all cases: co-IP, anti-FLAG, lysate of cells with N-FLAG B3GNT2; mass spectrometry
[1] = target: T1, CSE1L (human, UniProt P55060-4 1-915, limits assumed)
T1 construct: also called NP_001243064.1 (+2)
T1 sequence (looked up): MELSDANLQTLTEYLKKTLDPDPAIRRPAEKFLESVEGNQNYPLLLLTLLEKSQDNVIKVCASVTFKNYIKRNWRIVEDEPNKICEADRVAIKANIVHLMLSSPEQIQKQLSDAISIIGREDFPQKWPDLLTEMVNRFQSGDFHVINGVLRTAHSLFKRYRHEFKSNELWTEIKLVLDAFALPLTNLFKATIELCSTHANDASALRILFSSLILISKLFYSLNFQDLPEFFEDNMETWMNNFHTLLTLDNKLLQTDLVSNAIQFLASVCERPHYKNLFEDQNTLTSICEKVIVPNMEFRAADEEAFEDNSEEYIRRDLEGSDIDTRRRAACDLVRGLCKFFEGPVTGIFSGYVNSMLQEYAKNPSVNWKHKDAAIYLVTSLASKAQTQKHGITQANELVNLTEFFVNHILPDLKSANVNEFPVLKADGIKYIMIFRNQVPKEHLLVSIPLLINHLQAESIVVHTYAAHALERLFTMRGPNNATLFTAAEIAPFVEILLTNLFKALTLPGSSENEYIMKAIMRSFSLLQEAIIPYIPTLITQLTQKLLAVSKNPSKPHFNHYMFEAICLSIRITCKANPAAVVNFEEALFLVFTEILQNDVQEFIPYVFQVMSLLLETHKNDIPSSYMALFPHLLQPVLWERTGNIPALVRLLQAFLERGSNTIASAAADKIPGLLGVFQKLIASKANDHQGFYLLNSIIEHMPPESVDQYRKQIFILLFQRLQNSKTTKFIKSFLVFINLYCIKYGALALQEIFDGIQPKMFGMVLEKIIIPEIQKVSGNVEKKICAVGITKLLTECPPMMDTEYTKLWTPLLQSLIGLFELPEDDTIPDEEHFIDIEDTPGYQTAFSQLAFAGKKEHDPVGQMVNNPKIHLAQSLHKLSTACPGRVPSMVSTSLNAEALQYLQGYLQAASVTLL
Description: (§1) Cells were plated in 10-cm cell culture dishes and grown to 60-80% confluency. For each condition, two biological replicates were harvested for co-IP. Cells were washed with PBS and 4 mL of lysis buffer (20 mM HEPES, 1% Triton X-100, 150 mM NaCl, 1 mM EDTA, and 10% glycerol) containing protease inhibitor cocktail was added. Cells were scraped and lysate was incubated at 4° C. under rotary agitation for 1 h. Lysate was centrifuged at 14,000×g for 10 min at 4° C. Supernatant was transferred to a new tube and an aliquot was taken as the input. […] For Western blots, 10 μg/mL Chicken Anti-FLAG (Aves labs ET-DY100) and IgY control (R&D Systems AB-101-C) antibodies were biotinylated (Thermo Fisher Scientific 90407) and added to the respective conditions. Lysates with antibodies were incubated at 4° C. under rotary agitation overnight. For each mL of lysate, 50 μL of Pierce Protein A/G Magnetic Beads (Mass spectrometry; Thermo Fisher Scientific 88803) or Pierce Streptavidin Magnetic Beads (Western blot; Thermo Fisher Scientific 88817) was washed twice with lysis buffer. Lysates with antibodies were added to the beads and incubated at 4° C. under rotary agitation for 4 h. Beads were washed with lysis buffer 3 times and resuspended in lysis buffer for storage.
(§2) Magnetic beads were resuspended in 100 mM Tris pH 7.8, reduced, alkylated and digested with trypsin at 37° ° C. overnight. This solution was subjected to solid phase extraction to concentrate the peptides and remove unwanted reagents followed by injection onto a Shimadzu HPLC with fraction collector. Eight fractions were collected and after concentration were injected on a Waters NanoAcquity HPLC equipped with a self-packed Aeris 3 μm C18 analytical column 0.075 mm by 20 cm, (Phenomenex). Peptides were eluted using standard reverse-phase gradients. The effluent from the column was analyzed using a Thermo Orbitrap Elite mass spectrometer (nanospray configuration) operated in a data dependent manner for 54 minutes. The resulting fragmentation spectra were correlated against the known database using Proteome Discover 1.4 (Thermo Fisher Scientific).

[2] = target: ARPC4 (human, UniProt P59998 2-187)
Description: as §1, §2

[3] = target: T2, G3BP1 (human, UniProt Q13283 2-466)
T2 construct: also called NP_005745.1
Description: as §1, §2

[4] = target: T3, KRT6B (human, UniProt P04259 2-564)
T3 construct: also called NP_00546.2
T3 sequence (looked up): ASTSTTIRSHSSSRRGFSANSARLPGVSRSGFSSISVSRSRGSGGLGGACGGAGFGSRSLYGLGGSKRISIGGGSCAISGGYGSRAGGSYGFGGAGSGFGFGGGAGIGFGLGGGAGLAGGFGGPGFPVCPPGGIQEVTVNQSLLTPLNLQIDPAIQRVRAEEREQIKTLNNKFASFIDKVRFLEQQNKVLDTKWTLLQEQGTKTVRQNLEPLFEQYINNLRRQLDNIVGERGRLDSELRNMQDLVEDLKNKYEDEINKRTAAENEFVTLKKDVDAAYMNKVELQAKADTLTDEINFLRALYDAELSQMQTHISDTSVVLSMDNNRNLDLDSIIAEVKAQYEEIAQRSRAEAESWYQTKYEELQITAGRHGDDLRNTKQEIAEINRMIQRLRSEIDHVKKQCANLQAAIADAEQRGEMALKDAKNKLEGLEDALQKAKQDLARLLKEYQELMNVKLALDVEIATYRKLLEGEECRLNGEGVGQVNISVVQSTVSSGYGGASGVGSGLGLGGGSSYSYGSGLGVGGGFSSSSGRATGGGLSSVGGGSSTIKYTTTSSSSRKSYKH
Description: as §1, §2

T2 sequence (Q13283 2-466 limits assumed): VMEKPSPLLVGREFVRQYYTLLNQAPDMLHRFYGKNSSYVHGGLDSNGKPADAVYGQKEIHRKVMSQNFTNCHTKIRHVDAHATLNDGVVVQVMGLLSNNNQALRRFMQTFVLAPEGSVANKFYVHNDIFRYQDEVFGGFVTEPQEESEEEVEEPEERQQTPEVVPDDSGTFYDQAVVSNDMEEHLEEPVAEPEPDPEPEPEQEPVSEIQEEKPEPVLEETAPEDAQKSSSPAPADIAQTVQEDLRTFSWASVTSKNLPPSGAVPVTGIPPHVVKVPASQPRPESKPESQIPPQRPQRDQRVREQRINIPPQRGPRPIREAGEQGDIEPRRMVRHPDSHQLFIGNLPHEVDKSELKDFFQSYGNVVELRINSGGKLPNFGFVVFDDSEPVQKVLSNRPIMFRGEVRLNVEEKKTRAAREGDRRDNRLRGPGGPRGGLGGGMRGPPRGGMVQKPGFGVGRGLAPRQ

- co-IP mass spectrometry count [1]: 0
- co-IP mass spectrometry count [2]: 0
- co-IP mass spectrometry count [3]: 27
- co-IP mass spectrometry count [4]: 370
B1: N-terminal FLAG tagged B3GNT2 (enzyme, human, UniProt Q9NY97 1-397, looked up)
chain: MSVGRRRIKLLGILMMANVFIYFIMEVSKSSSQEKNGKGEVIIPKEKFWKISTPPEAYWNREQEKLNRQYNPILSMLTNQTGEAGRLSNISHLNYCEPDLRVTSVVTGFNNLPDRFKDFLLYLRCRNYSLLIDQPDKCAKKPFLLLAIKSLTPHFARRQAIRESWGQESNAGNQTVVRVFLLGQTPPEDNHPDLSDMLKFESEKHQDILMWNYRDTFFNLSLKEVLFLRWVSTSCPDTEFVFKGDDDVFVNTHHILNYLNSLSKTKAKDLFIGDVIHNAGPHRDKKLKYYIPEVVYSGLYPPYAGGGGFLYSGHLALRLYHITDQVHLYPIDDVYTGMCLQKLGLVPEKHKGFRTFDIEEKNKNNICSYVDLMLVHSRKPQEMIDIWSQLQSAHLKC
notes: Overexpressed in cells and pulled down from the lysate with mouse anti-FLAG antibody; also called N-FLAG B3GNT2; N-term FLAG; not shown: N-terminal FLAG tag
